Assays:
[1] = target: DT390IL-4 fusion protein (murine) (UniProt P00588); assay: cell-based or functional assay
[2] = target: IL-4 receptor (IL-4R) on C1498 tumor cells (UniProt P16382); assay: cell-based or functional assay
Chain of UniProt P16382 (P16382 26-810 limits assumed): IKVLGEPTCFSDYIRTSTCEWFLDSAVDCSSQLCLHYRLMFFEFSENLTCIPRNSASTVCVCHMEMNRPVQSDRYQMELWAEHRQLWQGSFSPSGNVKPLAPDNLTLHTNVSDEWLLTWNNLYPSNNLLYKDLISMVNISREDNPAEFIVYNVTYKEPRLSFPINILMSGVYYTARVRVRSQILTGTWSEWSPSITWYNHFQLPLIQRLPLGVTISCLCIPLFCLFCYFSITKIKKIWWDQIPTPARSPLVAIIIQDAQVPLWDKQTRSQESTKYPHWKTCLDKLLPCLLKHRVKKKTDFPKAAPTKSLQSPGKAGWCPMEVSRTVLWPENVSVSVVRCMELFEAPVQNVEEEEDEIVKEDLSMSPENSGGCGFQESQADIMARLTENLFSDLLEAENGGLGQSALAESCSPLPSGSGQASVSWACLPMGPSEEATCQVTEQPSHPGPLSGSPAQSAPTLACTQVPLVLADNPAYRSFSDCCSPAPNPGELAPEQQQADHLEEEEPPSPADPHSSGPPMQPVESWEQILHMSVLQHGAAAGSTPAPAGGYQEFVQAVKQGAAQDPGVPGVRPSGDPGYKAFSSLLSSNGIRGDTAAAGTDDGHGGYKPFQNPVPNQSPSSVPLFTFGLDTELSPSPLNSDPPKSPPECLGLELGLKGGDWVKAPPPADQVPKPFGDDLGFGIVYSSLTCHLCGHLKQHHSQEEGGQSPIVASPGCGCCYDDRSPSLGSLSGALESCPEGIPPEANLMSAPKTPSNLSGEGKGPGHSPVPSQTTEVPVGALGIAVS

Chain of UniProt P00588 (P00588 33-390, tags or fused parts left off): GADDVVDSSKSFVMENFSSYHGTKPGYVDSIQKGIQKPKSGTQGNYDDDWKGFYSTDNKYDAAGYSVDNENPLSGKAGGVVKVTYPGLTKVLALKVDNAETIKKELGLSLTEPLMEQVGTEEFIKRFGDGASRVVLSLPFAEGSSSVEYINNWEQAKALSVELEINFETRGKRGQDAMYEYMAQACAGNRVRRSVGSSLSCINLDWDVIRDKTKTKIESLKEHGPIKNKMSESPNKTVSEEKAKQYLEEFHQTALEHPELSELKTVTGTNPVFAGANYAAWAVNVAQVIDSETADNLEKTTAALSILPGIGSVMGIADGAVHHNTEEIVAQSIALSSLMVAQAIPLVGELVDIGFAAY

Substance | blocking of C1498 killing by DT390IL-4 [1] [µM] | viability of C1498 cells [2] [nM] | viability of IL-4R+ C1498 leukemia cells (trypan blue, live cell count) [2] [nM]
rat IgG1 anti-mouse IL-4 monoclonal antibody (Clone 11B11) | 20 |  | 
DT390IL-4 fusion protein (from UniProt P00588 33-390; P07750 21-140) |  | 10 | 1
